To fix the notation:
B12: TAMRA-labeled α-synuclein peptide (peptide)
peptide: GYQDYEPEA
modifications: also: TAMRA fluorophore, position not given here

Where two headings read alike, the source gives them in different places. Where no end group is shown, it is not given here.

Common to all, as to assay: FP
Test [1] concerns the target B12.
Test [2] has as its target B12.
Test [3] concerns the target I55V/N2.12.
Test [4] addresses N2.13.
Test [5] has as its target N2.9.
In test [6] the target is N2.3.
Test [7] deals with N2.11.
Test [8] concerns the target N2.15.
For test [9], the target named is N2.10.
For test [10], the target named is N2.2.
For test [11], the target named is N2.14.
Test [12] addresses N2.6.
The target of test [13] is N2.1.
In test [14] the target is N2.8.
Test [15] has as its target N2.4.
For test [16], the target named is N2.7.

B1: N2.5 VHH (VHH)
VHH: QGQLVESGGGSVQAGGSLRLSCAASGIDSSSYCMGWFRQRPGKEREGVARINGLSGVKTAYADSVKDRFTISRDNAENTVYLQMNSLKPEDTAIYYCAAKSSPGYCGGTWFSFGYWGQGTQVTVSS
In general, Kd refers to the free concentration of one partner at which half of the binding sites on the other are occupied at equilibrium, for simple one-to-one binding. Low readings indicate higher affinity, high ones lower affinity. Consider B1, for which the Kd in test [1] was 55.3 nM.

B2: N2.17 reversion mutant L52b (VHH)
VHH: QGQLVESGGGSVQAGGSLRLSCAASGIDSSSYCMGWFRQRPGKEREGVARINGLGGVKTAYADSVKDRFTISRDNAENTVYLQMNSLKPEDTAIYYCAAKSSPGYCGGTWFNFGYWGQGTQVTVSS
Regarding B2, the Kd in [2] amounted to 30 nM.

B3: N2.16 VHH (VHH)
VHH: QGQLVESGGGSVQAGGSLRLSCAASGIDSSSYCMGWFRQRPGKEREGVGRINGWSGVKTAYADSVKDRFTISRDNAENTVYLQMNSLKPEDTAIYYCAAKSSPGYCGGTWYNFGYWGQGTQVTVSS
In turn, B3 yielded a Kd in [1] of 11.2 nM.

B4: N2.12 reversion mutant L52b (VHH)
VHH: QGQLVESGGGSVQAGGSLRLSCAASGIDSSSYCMGWFRQRPGKEREGVGRINGLRGIKTAYADSVKDRFTISRDNAENTVYLQMNSLKPEDTAIYYCAAKSSPGYCGGTWSNFGYWGQGTQVTVSS
B4 showed a Kd in test [2] of 16.9 nM.

B5: N2.12 reversion mutant G53 (VHH)
VHH: QGQLVESGGGSVQAGGSLRLSCAASGIDSSSYCMGWFRQRPGKEREGVGRINGWGGIKTAYADSVKDRFTISRDNAENTVYLQMNSLKPEDTAIYYCAAKSSPGYCGGTWSNFGYWGQGTQVTVSS
Consider B5, for which binding in test [2] was put at a Kd of 14.1 nM.

B6: N2.12 reversion mutant F96 (VHH)
VHH: QGQLVESGGGSVQAGGSLRLSCAASGIDSSSYCMGWFRQRPGKEREGVGRINGWRGIKTAYADSVKDRFTISRDNAENTVYLQMNSLKPEDTAIYYCAAKFSPGYCGGTWSNFGYWGQGTQVTVSS
In test [2], B6 returned a Kd of 18.6 nM.

B7: N2.12 reversion mutant S100d (VHH)
VHH: QGQLVESGGGSVQAGGSLRLSCAASGIDSSSYCMGWFRQRPGKEREGVGRINGWRGIKTAYADSVKDRFTISRDNAENTVYLQMNSLKPEDTAIYYCAAKSSPGYCGGSWSNFGYWGQGTQVTVSS
Molecule B7 yielded a Kd in test [2] of 11.9 nM.

B8: N2.17 reversion mutant S100f (VHH)
VHH: QGQLVESGGGSVQAGGSLRLSCAASGIDSSSYCMGWFRQRPGKEREGVARINGWGGVKTAYADSVKDRFTISRDNAENTVYLQMNSLKPEDTAIYYCAAKSSPGYCGGTWSNFGYWGQGTQVTVSS
In turn, B8 displayed a Kd in test [2] of 11 nM.

B9: N2.12 reversion mutant A49 (VHH)
VHH: QGQLVESGGGSVQAGGSLRLSCAASGIDSSSYCMGWFRQRPGKEREGVARINGWRGIKTAYADSVKDRFTISRDNAENTVYLQMNSLKPEDTAIYYCAAKSSPGYCGGTWSNFGYWGQGTQVTVSS
B9 came in with a Kd in test [2] of 8.2 nM.

B10: N2.17 reversion mutant S100d (VHH)
VHH: QGQLVESGGGSVQAGGSLRLSCAASGIDSSSYCMGWFRQRPGKEREGVARINGWGGVKTAYADSVKDRFTISRDNAENTVYLQMNSLKPEDTAIYYCAAKSSPGYCGGSWFNFGYWGQGTQVTVSS
In test [2], B10 showed a Kd of 27.5 nM.

B11: N2.17 reversion mutant F96 (VHH)
VHH: QGQLVESGGGSVQAGGSLRLSCAASGIDSSSYCMGWFRQRPGKEREGVARINGWGGVKTAYADSVKDRFTISRDNAENTVYLQMNSLKPEDTAIYYCAAKFSPGYCGGTWFNFGYWGQGTQVTVSS
For the molecule B11, binding in test [2] was put at a Kd of 72.2 nM.
Regarding B12, the Kd in test [3] was 5.7 nM; in [4] it was 20.3 nM; in test [5] it was 28 nM; in test [6] it was 11.4 nM; in [7], 21.6 nM; in test [8], 23.1 nM. Also, the Kd in [9] amounted to 31.6 nM; in test [10], 23 nM; in test [11], 16.2 nM; in test [12], 25.1 nM; in [13], 14.3 nM; in test [14], 28.5 nM. For the same molecule, the equilibrium dissociation constant (Kd) in test [15] came to 14.3 nM; in [16], 15.1 nM.

The record behind these values is publication PMC5591402 (2017).
